Read-outs that look alike come from different tables or passages of the source.
Columns and labels:
[1] = biological target: RanGAP1-SUMO1/UBC9 (human) (UniProt P46060)
[2] = biological target: RanGAP1-SUMO1/UBC9 (human) (UniProt P46060); remark: listed apart in the source
[3] = biological target: UBC9 (human, UniProt P63279); assay: crystal structure
Chain of UBC9 (P63279 whole entry): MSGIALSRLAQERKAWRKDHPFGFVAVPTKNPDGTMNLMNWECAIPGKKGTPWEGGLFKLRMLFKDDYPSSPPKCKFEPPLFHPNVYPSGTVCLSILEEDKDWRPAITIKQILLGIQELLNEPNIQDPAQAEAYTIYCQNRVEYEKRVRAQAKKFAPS

Chain of RanGAP1-SUMO1/UBC9 (human) (P46060 419-578, chain 1 of 3): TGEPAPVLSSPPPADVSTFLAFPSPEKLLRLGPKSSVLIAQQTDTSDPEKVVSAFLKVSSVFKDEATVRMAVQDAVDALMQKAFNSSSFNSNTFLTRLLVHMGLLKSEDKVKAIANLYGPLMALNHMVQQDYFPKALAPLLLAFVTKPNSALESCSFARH
Chain of RanGAP1-SUMO1/UBC9 (human) (P63165 18-97, chain 2 of 3, further chain): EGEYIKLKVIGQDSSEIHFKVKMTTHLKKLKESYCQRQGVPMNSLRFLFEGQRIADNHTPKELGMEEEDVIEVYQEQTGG
Chain of RanGAP1-SUMO1/UBC9 (human) (P63279 whole entry, chain 3 of 3, further chain): as the sequence (P63279 whole entry) above

Molecule: IR2SIM-IR1_(II–V) (domain or fragment)
- protease protection from SENP1: protection of RanGAP1-SUMO1 against that by IR1 [1]: 144 fold

Molecule: IR1-M-IR2 (RanBP2 residues 2631–2771) (from UniProt P49792 2631-2771) (domain or fragment)
- protease protection from SENP1: protection of RanGAP1-SUMO1 against that by IR1 [2]: 16 fold

B1: IR1 (RanBP2 residues 2631–2695) (domain or fragment)
chain: DVLIVYELTPTAEQKALATKLKLPPTFFCYKNRPDYVSEEEEDDEDFETAVKKLNGKLYLDGSEK
- binding result [3]: binds

From PMC3281653 (The Journal of Biological Chemistry, 2011)
